Data on eight sequences can be found in US20140350088.

pKd: −log10 of the molar value.

The target of data set [1] is biotinylated human glucagon (Homo sapiens) (UniProt P01275). Nature of the data set: SPR. The following applies: 37 C, HBS-EP pH 7.4.
In data set [2] the target is T1, human alpha-CGRP (Homo sapiens) (UniProt P06881).
T1 sequence: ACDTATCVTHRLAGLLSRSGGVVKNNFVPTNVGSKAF
Kind of data set: SPR. As to conditions: L-RNA, 37 C.

Data set [3] concerns the target biotinylated human glucagon (Homo sapiens) (UniProt P01275). Nature of the data set: competition. The following applies: L-DNA; competitive pull-down, 37 C, 1 mM Mg, 1 mM Ca.
The target of another data set is T2, human C5a (Homo sapiens) (UniProt P01031).
T2 sequence: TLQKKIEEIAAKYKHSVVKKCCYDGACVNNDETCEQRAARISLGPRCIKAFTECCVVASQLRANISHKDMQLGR
Kind of data set: SPR. As to conditions: L-RNA; 37 C, HBS-EP pH 7.4.

For orientation: pKd means the Kd on a negative log10 scale, so that one unit is a factor of ten.

Chain of biotinylated human glucagon (Homo sapiens) (P01275 53-81): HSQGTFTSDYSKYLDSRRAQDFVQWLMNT

In turn, “ACTCGAGAGGAAAGGTTGGTAAAGGTTCGGTTGGATTCACTCGAGT [259-H6-002]” showed a pKd in data set [1] (L-DNA) of 7.96.
On to “CCGUGCUGUCGGAGACUACUCGUCGAGUAGAAAUAGGUCCCCUCCCACGG [226-F2-001-D44]”, for which, in data set [2] (dC at 44, HBS-EP pH 7.4), the pKd is 9.28.
“CAGACGUGUGUGGGUAGAUGCACCUGCGAUUCGCUAAAAAGUGCCACACGUCUG [NOX-G11stabi2]” showed a pKd in data set [1] (L-RNA) of 7.17.
Regarding “CCGUGCUGUCGGAGACUACUCGUCGAGUAGAAAUAGGUCCCCUCCCACGG [226-F2-001-D41/D44]”, the pKd in data set [2] (dC at 41 and 44, 13-fold improvement over parent) was 9.70.
In data set [2] (HBS-EP pH 7.4), “CCGUGCUGUCGGAGACUACUCGUCGAGUAGAAAUAGGUCCCCUCCCACGG [226-F2-001]” showed a pKd of 8.59.
In turn, “GCAGTGGGGAAATGGGAGGGCTAGGTGGAAGGAATCTGAGCTACTGC [257-E1-001]” had a pKd in data set [3] of 6.73.
On to “CCGUGCUGUCGGAGACUACUCGUCGAGUAGAAAUAGGUCCCCUCCCACGG [226-F2-001-D41]”, for which, in data set [2] (dC at 41, HBS-EP pH 7.4), the pKd was 9.26.
As for “GCCUGAUGUGGUGGUGAAGGGUUGUUGGGUGUCGACGCACAGGC [NOX-D19001]”, the pKd with human C5a (Homo sapiens) is 8.85.
